Measured values: US20250388694A1

Target: Human TCTP (translationally controlled tumor protein) (human) (UniProt P13693)
Assay: SPR, Biacore 8K, human TCTP immobilised on CM5 chip, antibody as analyte, 1:1 model

Chain of Human TCTP (translationally controlled tumor protein) (human) (P13693 whole entry): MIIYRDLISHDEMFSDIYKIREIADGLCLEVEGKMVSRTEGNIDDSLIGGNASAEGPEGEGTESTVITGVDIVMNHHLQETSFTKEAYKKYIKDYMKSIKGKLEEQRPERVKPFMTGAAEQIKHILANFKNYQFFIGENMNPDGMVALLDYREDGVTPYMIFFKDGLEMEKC

B1: 55F3 (antibody, from another filing, V domains shown)
VH: DVQLQESGPGLVKPSQSLSLTCTATGYSIASDYAWNWIRQFPGNKLEWMGYINYSGSTGYNPSLKSRISITRDTSKNQFFLQLNSVTTEDTATYYCARFEAGYWGQGTTLTVSS
VL: DIKMTQSPSSMSASLGERVTITCKASQDINRYLSWFQQKPGKSPKTLIYRANRLVDGVPSRFSGSGSGQDYSLTISSLEYGDMGIYYCLQYNEFPLTFGAGTKLELKR
Kd: 263 nM
